Measured values published in US20220372154A1 (APEXIGEN, published 2022).
Substitutions are numbered along the chain they refer to.

B1: chimeric antibody clone 28B7.3 (rab600_23_28B7.3) (antibody, V domains shown)
VH: QSVEESGGRLVTPGTPLTLTCTVSGFSLNSHYMIWVRQAPGKGLEYIGIITSSDYIYYARWAKGRFTISKTSSTTVDLKITSPTTEDTATYSCARYNYDDDGELFNLWGQGTLVTVSS
VL: AVLTQTPSSVSAAVGGTVTLNCQSSQSIDANNDLAWYQQKPGQPPRLLIYLASKLASGVPSRFSGSGSGTQFTLTISGVQCDDAATYYCLGGYDDDADNTFGGGTEVVVK
B2: chimeric antibody clone 37H4.1 (rab600_23_37H4.1) (antibody, V domains shown)
VH: B1 VH with I49V, S92F
VL: B1 VL with R46K, K54T, L55R, S64K, D82Y
B3: chimeric antibody clone 55F6.1 (taken as rab600_23_55F6.6) (antibody, V domains shown)
VH: QQQLEESGGDLVKPGASLTVTCTASGFSFTNNYYMCWVRQAPGKGLEWIGCIYPSIVGPTYYANWAKGRFTISKTSSTTVTLEMTSLTAADTATYFCVRDRYDDYGDYFNLWGPGTLVTVSS
VL: DIVMTQTPASVSVPVGGTVTIKCQASQSIYNYLSWYQQKPGQPPKRLIYYASTLASGVPSRFSGSGSGTEFTLTISDLECADAATYYCQSNSGVNGNRYGNAFGGGTEVVVK
B4: chimeric antibody clone 9 (rab600_25_9) (antibody, V domains shown)
VH: QSVEESGGRLVTPGTPLTLTCTVSGFSLSTYDINWVRQAPGKGLEWIGIIYTGGITNFANWAKGRFTISKTSTTVDLKIASPTTEDTATYFCARGGYDSDGYVYPDAFDPWGPGTLVTVSS
VL: ALVMTQTPASVEADVGGTVTINCQASESISNLLAWYQQKPGQRPKLLIYRASILTSGVSSRFKGSGSGTEYTLTINGVQCADAATYYCQHGYTGTNVQNVFGGGTEVVVK
B5: chimeric antibody clone 23.71 (rab600_23_71) (antibody, V domains shown)
VH: QSVEESGGRLVTPGTSLTLTCTVSGIDLSSYAMSWVRQAQGKGLEWIGIIGDSGSTWYASWAKGRFTISKTSTTVDLKITSPTPEDTATYFCAREPDYGGYAGYGYGDLWGQGTLVTVSS
VL: IKMTQTLASVSAAVGGTGSISCQASEDIGNYVAWYQQKPGQPPKFLIYDTSHLASGVPSRFKGSRSGKEFTLTISGVQCDDAATYYCQHGYYTSDTDNTFGGGTEVVVK
B6: chimeric antibody clone 24 (rab600_23_24) (antibody, V domains shown)
VH: QSLEESGGRLVTPGTPLTLTCTASGFSLNSYGVNWVRQAPGKGLEWIGGINTGGSTYYANWAKGRFTISKTSAMVDLKVTSPTTEDTATYVCARTSGNNVYNYFTLWGQGTLVTVSS
VL: DIVMTQTPSSVSAAVGGTVTIYCQASQSIPSLLAWYQQKSGQPPKLLIYAPSTLASGVPSRFKASGSGTQFTLTISDLECADAATYYCQSYYYGDNTYNNIFGGGTEVVVK
B7: chimeric antibody clone 25.71 (rab600_25_71) (antibody, V domains shown)
VH: QSVEESEGRLVTPGTPLTLTCTVSGIDLSSYAMGWVRQAPGMGLEWIGDISTSGNAYYATWVKGRFTISRTSTTVDLKMASLTTADTATYFCARADYGGETYAFDPWGPGTLVTVSS
VL: DIVMTQTPASVEAAVGGTVTIKCQASQSISSYLNWYQQKPGQPPKLLIYSASTLASGVPSRFKGSGSGTQFTLTISGVECADAATYYCQQGYSDSNIDNVFGGGTEVVVK
B8: chimeric antibody clone 37 (rab600_25_37) (antibody, V domains shown)
VH: QSVEESGGRLVTPGTPLILTCTVSGIDLSNYAMGWFRQAPGEGLEWIGSRRTDGITYYANWAEGRFTISRTSTTVDLEITSPTTEDTATYFCGRDVGGDGGWYFNLWGPGTLVTVSS
VL: AGDMTQTPASVEVAVGGTVTIKCQASQSINIYLAWYQQKPGQPPKLLIYDASKLASGVPSRFSGSGSGTEFTLTISDLECADAATYYCQQGINNIGFGGGTEVVVK
B9: chimeric antibody clone 42 (rab600_25_42) (antibody, V domains shown)
VH: QSLEESGGRLVTPGTPLTLTCTVSGIDLSTYAMIWVRQAPGKGLEYIGFIRPGGSAWYASWAKGRFTISKTSTTVDREITSPTTEDTATYFCATYDTYGYGDTRLWGPGTLVTVSS
VL: AYDMTQTPASVEVAVGGTVTIKCQASESIFSYLAWYQQKPGQRPKLLIYYASTLASGVPSRFKGSGSGTQFTLTISGVECADAATYYCQQGYDFSAVDNVFGGGTEVVVK
B10: chimeric antibody clone 8G10.7 (rab600_23_8G10.7) (antibody, V domains shown)
VH: LEQSGGGAGGGLVKPGGSLELCCKASGFTLINSHWICWVRQAPGKGLEWIGCIFAGSAGSTYYATWVSGRFTLSRDIDQNTGCLQLNSLTAADTAMYYCARDQTNTAYDPFYLNLWGQGTLVTVSS
VL: IEMTQTPFSVSAAVGGTVTINCQASENIYSSLAWYQQKPGQPPKLLIYAASDLASGVPSRFSGSGSGTEYTLTISGVQCADAATYYCQSAYSSGSDDNGFGGGTEVVVK
B11: chimeric antibody clone 8G11.5 (rab600_23_8G11.5) (antibody, V domains shown)
VH: QSLEESGGRLVTPGTPLTLTCTVSGFSLNSNGMNWVRQAPGKGLEWIGGINAGGSAYYANWAKGRFTISKTSTMVDLKITSPTTEDTATYFCAKTSGINVYNYLNLWGQGTLVTVSS
VL: B6 VL with S10P, Y22N, P30Y, S31T, L32A, P51A, A64G, S90N, I101T
B12: chimeric antibody clone 11G12.1 (rab600_23_11G12.1) (antibody, V domains shown)
VH: QSLEESGGDLVQPGASLTLTCTASGFSVNVNSYMCWVRQAPGKGLELIACIDTGSGGSTWYGSWAKGRFTISKSTNLNTVTLQMTSLTAADTATYFCARARNTYGYGDYVYGGAFDPWGPGTLVTVSS
VL: DIVMTQTPASVEAAVGGTVTIKCQASQSISSTYLSWYQQKPGQRPKLLIYQASTLASGVPSRFKGSGSGTEFTLTISDLECADAATYYCQGGYFSDNGCYNAFGGGTEVVVK
notes: also called rab600_23_HG12.1
B13: chimeric antibody clone 37D1.4 (rab600_23_37D1.4) (antibody, V domains shown)
VH: B11 VH
VL: B6 VL with S10P, Y22N, P30Y, S31T, L32A, P51A, A64G, S90N, I101T

Target: T1, cynomolgus TNFR2-His tagged protein (cynomolgus, UniProt A0A2K5VET2 132-366)
T1 construct: also called Cyno TNFR2; cynomolgus TNFR2 protein; not shown: His tag
T1 sequence: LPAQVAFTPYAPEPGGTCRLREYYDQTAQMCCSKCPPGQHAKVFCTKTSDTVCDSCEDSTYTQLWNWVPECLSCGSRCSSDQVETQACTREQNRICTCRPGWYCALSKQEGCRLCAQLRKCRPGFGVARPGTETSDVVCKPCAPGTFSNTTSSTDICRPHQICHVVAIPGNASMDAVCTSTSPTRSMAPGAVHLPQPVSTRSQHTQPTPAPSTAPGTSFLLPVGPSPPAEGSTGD
Test: ELISA on coated cynomolgus TNFR2-His
Experimental: (§1) In FIGS. 3A-3B, human (3A) or cynomolgus (3B) TNFR2-His tagged protein was coated on 96-well ELISA plates at 1 μg/mL and incubated overnight at 4° C. Plates were washed and blocked using 1% BSA. Antibodies were added for 1 hour at room temperature (RT), washed, and detected using anti-Human HRP. Assay was developed using TMB substrate for 3-5 minutes. In FIG. 3C, FACS binding was performed on CHO cells that were engineered to express human TNFR2. Briefly, antibodies were incubated with 200,000 cells in MACS buffer for 1 hour followed by wash and detection using anti-human IgG BV421 for 20 minutes. Samples were analyzed using Cytoflex or MACSQuant flow cytometers. In FIG. 3D, ligand blocking ELISA was performed by coating plates with 1 ug/mL TNFR-Fc overnight at 4° C. Plates were washed, blocked and antibodies were incubated for 1 hr at RT. […] Assay was developed using TMB substrate for 5-7 minutes.

Row | Binder | EC50
1 | B1 | 0.0763 nM
2 | B2 | 0.195 nM
3 | B3 | 0.0862 nM
4 | B4 | 0.151 nM
5 | B5 | 0.243 nM
6 | B6 | 0.093 nM
7 | B7 | 0.197 nM
8 | B8 | 0.148 nM
9 | B9 | 0.184 nM
10 | B10 | 0.269 nM
11 | B11 | 0.0927 nM
12 | B12 | 0.191 nM
13 | B13 | 0.081 nM

Target: T2, TNFR-Fc (UniProt P20333 23-257, limits assumed)
T2 construct: Printed only as TNFR-Fc; not shown: Fc part
T2 sequence (looked up): T1 sequence with G16S, P36S, Q117P, H164N, A210E, G216S, V223M
Test: TNF-α blocking ELISA on coated TNFR-Fc
Experimental: as §1

Row | Binder | IC50
14 | B1 | 2.97 nM
15 | B2 | 2.92 nM
16 | B3 | 4.35 nM
17 | B4 | 2.78 nM
18 | B5 | 5.41 nM
19 | B6 | 3.16 nM
20 | B7 | 2.98 nM
21 | B8 | 3.25 nM
22 | B9 | 11.2 nM
23 | B11 | 24.6 nM
24 | B13 | 27.8 nM

Target: T3, human TNFR2-His tagged protein (soluble) (human, UniProt P20333 23-257)
T3 construct: also called hTNFR2 (soluble); soluble TNFR2-His; not shown: His tag
T3 sequence (looked up): T1 sequence with G16S, P36S, Q117P, H164N, A210E, G216S, V223M
Test: ELISA on coated human TNFR2-His
Experimental: as §1

Row | Binder | EC50
25 | B1 | 0.149 nM
26 | B2 | 0.184 nM
27 | B3 | 0.124 nM
28 | B4 | 0.144 nM
29 | B5 | 0.206 nM
30 | B6 | 0.098 nM
31 | B7 | 0.147 nM
32 | B8 | 0.126 nM
33 | B9 | 0.242 nM
34 | B10 | 0.243 nM
35 | B11 | 0.157 nM
36 | B12 | 0.261 nM
37 | B13 | 0.156 nM

Target: T4, human TNFR2 expressed on cells (human, UniProt P20333 23-461)
T4 construct: whole, on cells; also called hTNFR2 (cell); CHO-TNFR2
T4 sequence (looked up): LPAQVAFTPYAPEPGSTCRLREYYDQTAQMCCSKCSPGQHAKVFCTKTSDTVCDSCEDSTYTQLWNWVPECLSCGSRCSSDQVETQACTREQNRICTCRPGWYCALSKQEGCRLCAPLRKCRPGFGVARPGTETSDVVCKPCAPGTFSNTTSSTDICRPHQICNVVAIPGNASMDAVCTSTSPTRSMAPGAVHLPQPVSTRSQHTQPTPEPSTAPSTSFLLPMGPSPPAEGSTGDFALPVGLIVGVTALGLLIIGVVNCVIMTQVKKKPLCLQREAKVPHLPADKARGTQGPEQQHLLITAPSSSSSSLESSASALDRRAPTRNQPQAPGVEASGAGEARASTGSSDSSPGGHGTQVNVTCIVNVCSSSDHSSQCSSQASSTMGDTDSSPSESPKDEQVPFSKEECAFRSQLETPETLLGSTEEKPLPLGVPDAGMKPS
Test: flow cytometry on CHO cells expressing human TNFR2
Experimental: as §1

Row | Binder | EC50
38 | B1 | 0.321 nM
39 | B3 | 1.32 nM
40 | B4 | 0.147 nM
41 | B5 | 0.26 nM
42 | B6 | 0.1 nM
43 | B7 | 0.091 nM
44 | B8 | 0.1 nM
45 | B9 | 0.091 nM

Target: T5, soluble mouse TNFR2 (mouse, UniProt P25119 23-258, limits assumed)
T5 sequence (looked up): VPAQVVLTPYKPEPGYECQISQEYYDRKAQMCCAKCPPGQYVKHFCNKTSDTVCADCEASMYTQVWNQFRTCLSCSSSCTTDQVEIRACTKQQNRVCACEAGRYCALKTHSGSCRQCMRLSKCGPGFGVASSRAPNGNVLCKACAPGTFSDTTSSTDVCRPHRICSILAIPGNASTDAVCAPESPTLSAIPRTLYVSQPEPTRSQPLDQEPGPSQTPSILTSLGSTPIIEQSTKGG
Test: binding screen on soluble mouse TNFR2 (mouse cross-reactivity)

Row | Binder | binding result
46 | B1 | no binding
47 | B2 | no binding
48 | B3 | no binding
49 | B4 | no binding
50 | B5 | no binding
51 | B6 | no binding
52 | B7 | no binding
53 | B8 | no binding
54 | B9 | no binding
55 | B10 | no binding
56 | B11 | no binding
57 | B12 | no binding
58 | B13 | no binding
